B1: wild type CD40 ligand/zipper domain fusion protein (WT) expressed in yeast (ligand)
chain: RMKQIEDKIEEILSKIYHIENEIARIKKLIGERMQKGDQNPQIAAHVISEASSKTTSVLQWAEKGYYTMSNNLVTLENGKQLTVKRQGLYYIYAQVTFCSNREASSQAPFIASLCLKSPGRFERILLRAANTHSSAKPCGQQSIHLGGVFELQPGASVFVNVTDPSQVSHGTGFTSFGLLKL
B2: trimeric murine CD40-L (ligand)
chain: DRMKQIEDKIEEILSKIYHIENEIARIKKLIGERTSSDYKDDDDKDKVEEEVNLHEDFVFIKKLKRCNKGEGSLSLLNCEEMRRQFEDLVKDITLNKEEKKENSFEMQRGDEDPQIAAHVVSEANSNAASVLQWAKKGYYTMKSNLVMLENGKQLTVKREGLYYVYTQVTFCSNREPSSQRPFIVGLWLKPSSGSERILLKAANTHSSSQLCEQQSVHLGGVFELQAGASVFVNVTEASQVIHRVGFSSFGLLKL
notes: The leader is not part of the secreted protein; Made in CHO cells; also called Murine Trimer; muCD40LT

Columns and labels:
CD40/Fc fusion protein [1] = biological target: T1, CD40/Fc fusion protein (human, UniProt P25942 21-193); test: biosensor assay substantially as Example 22 (captured CD40/Fc); yeast-expressed protein
T1 construct: extracellular domain; also called C40/Fc; s CD40/Fc; not shown: remainder of the human IgG1 Fc region, joined at a Bgl II site near the beginning of the hinge
T1 sequence (P25942 other isoform, or with tags, fused parts or gaps limits assumed): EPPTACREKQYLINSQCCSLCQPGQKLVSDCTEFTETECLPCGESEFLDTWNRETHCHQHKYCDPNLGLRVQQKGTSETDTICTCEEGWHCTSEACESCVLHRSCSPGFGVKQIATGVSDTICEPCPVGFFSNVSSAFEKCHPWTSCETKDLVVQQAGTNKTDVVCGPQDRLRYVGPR
Description: The biosensor chips were coated with goat anti-human IgG_1 Fc, which was used to bind CD40/Fc (prepared as described in Example 1) to the chip. The different constructs of CD40-L were then added at increasing concentrations; the chip was regenerated between the different constructs by the addition of sodium hydroxide. Two separate experiments were performed. In the first, the binding of a dimeric human CD40-L (Example 14), trimeric human CD40-L (Example 15), dimeric murine CD40-L (prepared substantially as described in Example 14 for human CD40-L/FC) and trimeric murine CD40-L (prepared substantially as described for the human CD40-L in Example 15) were compared. In the second experiment, the binding of trimeric human CD40-L was compared to the binding of two different preparations of monomeric human CD40-L prepared as described in Example 18. The resultant data were analyzed to determine the affinity and association rate constants of the different CD40-L constructs. Results are shown in Table 12 below, and in FIGS. 19A–19B
[a]Mutations are given as the residue present in the native peptide, the residue number, and the residue present in the mutein. Residue numbers for zipper domain mutations are relative to SEQ ID NO: 17. [b]Residue numbers for mutations in the CD40L domain are relative to SEQ ID NO: 12. […]

CD40/Fc fusion protein [2] = biological target: T1, CD40/Fc fusion protein; test: biosensor (BIAcore), CD40/Fc captured by goat anti-human IgG1 Fc; experiment 1; K1 (site 1)
Description: (§1) This example illustrates the binding affinities of several different CD40-L constructs. Affinity experiments were conducted by biospecific interaction analysis (BIA) using a biosensor, an instrument that combines a biological recognition mechanism with a sensing device or transducer. An exemplary biosensor is BIAcore™, from Pharmacia Biosensor AB (Uppsala, Sweden; see Fägerstam L. G., *Techniques in Protein Chemistry II*, ed. J. J. Villafranca, Acad. Press, NY, 1991). BIAcore™ uses the optical phenomenon surface plasmon resonance (Kretschmann and Raether, *Z. Naturforschung, Teil. A* 23:2135, 1968) to monitor the interaction of two biological molecules. Molecule pairs having affinity constants in the range 10^5 to 10^10 M^-1, and association rate constants in the range of 10^3 to 10^6 M^-1s^-1, are suitable for characterization with BLAcore™.
(§2) The biosensor chips were coated with goat anti-human IgG_1 Fc, which was used to bind CD40/Fc (prepared as described in Example 1) to the chip. The different constructs of CD40-L were then added at increasing concentrations; the chip was regenerated between the different constructs by the addition of sodium hydroxide. Two separate experiments were performed. […] The resultant data were analyzed to determine the affinity and association rate constants of the different CD40-L constructs. […]

CD40/Fc fusion protein [3] = biological target: T1, CD40/Fc fusion protein; test: biosensor (BIAcore), CD40/Fc captured by goat anti-human IgG1 Fc; experiment 1
Description: as §1, §2

CD40/Fc fusion protein [4] = biological target: T1, CD40/Fc fusion protein; test: biosensor (BIAcore), CD40/Fc captured by goat anti-human IgG1 Fc; experiment 1; K2 (site 2)
Description: as §1, §2

Row | Binder | Ka (CD40/Fc fusion protein [1]) | Ka (CD40/Fc fusion protein [2]) | Site 1 (mol/mol CD40/Fc) (CD40/Fc fusion protein [3]) | Site 2 (mol/mol CD40/Fc) (CD40/Fc fusion protein [3]) | Ka (CD40/Fc fusion protein [4])
1 | B1 | 7.7e+07 M⁻¹ |  |  |  | 
2 | B2 |  | 6e+10 M⁻¹ | 0.02 mol/mol CD40/Fc | 0.44 mol/mol CD40/Fc | 1.6e+08 M⁻¹

— patent US6410711
